Legend:
[1] = target: T1, Trs85-TAP (from yeast) (budding yeast, UniProt P46944 1-698); assay: tandem affinity purification
T1 sequence: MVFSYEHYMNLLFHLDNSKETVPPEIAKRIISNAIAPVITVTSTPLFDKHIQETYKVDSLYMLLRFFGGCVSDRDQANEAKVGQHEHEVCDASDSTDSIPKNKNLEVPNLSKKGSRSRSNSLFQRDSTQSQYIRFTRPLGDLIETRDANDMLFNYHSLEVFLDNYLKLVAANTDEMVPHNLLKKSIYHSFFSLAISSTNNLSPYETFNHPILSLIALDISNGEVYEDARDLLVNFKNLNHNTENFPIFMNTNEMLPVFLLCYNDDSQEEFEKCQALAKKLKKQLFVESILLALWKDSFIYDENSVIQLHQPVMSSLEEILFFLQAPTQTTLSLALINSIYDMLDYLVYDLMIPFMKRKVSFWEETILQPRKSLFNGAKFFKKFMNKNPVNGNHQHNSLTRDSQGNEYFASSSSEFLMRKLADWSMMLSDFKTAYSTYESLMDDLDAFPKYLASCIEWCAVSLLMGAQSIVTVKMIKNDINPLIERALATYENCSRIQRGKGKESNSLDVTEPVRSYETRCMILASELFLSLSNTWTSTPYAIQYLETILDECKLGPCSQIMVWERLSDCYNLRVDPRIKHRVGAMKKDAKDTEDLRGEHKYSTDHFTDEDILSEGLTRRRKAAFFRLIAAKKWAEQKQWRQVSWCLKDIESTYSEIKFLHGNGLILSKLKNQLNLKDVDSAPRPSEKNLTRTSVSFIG

[2] = target: T2, Trs120-TAP (budding yeast, UniProt Q04183 1-1289); assay: tandem affinity purification
T2 sequence: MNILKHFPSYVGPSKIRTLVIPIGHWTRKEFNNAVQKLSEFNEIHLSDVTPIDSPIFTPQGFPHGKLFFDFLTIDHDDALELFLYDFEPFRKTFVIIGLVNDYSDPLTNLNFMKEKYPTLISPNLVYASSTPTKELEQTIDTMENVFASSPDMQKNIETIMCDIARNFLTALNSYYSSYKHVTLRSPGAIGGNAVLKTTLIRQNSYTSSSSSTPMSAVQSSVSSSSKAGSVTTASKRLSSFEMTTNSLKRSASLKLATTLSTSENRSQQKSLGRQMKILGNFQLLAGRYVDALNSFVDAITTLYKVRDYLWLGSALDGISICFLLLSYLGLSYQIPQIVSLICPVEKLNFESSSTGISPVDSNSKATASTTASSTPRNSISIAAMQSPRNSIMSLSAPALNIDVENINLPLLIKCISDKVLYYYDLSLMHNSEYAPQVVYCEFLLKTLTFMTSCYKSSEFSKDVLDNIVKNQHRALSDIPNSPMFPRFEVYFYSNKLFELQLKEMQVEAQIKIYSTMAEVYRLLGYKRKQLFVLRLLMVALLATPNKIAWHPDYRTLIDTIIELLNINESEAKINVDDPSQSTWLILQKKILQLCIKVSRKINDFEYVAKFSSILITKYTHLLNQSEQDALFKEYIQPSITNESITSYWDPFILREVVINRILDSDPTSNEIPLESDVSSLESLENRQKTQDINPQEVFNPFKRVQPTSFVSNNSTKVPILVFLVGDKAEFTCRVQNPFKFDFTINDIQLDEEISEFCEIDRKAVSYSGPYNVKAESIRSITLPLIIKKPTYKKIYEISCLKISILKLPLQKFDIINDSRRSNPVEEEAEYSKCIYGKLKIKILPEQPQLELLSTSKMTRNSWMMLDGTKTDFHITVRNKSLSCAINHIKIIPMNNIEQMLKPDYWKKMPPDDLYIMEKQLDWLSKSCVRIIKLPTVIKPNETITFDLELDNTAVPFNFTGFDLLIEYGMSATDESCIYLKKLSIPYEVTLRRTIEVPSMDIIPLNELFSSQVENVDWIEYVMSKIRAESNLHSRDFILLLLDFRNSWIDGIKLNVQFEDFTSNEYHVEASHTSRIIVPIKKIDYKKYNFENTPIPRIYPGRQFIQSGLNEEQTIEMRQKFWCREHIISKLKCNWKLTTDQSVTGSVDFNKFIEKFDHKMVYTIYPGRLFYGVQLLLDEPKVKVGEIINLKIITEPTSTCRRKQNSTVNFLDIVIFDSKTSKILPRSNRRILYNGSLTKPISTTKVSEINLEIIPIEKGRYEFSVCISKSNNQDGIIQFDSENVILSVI

[3] = target: T3, Gdi1 (UniProt P39958 1-451); assay: SEC
T3 sequence: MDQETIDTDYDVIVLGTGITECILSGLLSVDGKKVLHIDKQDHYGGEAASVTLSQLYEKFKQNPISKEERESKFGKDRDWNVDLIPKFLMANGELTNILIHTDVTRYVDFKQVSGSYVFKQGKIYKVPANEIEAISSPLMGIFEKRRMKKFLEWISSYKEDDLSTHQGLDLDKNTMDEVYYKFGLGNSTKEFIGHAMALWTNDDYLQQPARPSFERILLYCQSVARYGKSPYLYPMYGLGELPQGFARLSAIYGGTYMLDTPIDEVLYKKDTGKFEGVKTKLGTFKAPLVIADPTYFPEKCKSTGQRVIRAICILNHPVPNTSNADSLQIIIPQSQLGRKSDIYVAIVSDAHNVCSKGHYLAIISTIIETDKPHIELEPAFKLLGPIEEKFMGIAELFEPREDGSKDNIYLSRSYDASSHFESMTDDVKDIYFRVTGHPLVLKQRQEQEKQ

B1: Bet3 (endogenous, yeast) (natural protein)
chain: MVSTTQSRSLKAMGEEIWKNKTEKINTELFTLTYGSIVAQLCQDYERDFNKVNDHLYSMGYNIGCRLIEDFLARTALPRCENLVKTSEVLSKCAFKIFLNITPNITNWSHNKDTFSLILDENPLADFVELPMDAMKSLWYSNILCGVLKGSLEMVQLDCDVWFVSDILRGDSQTEIKVKLNRILKDEIPIGED
[1]
  stoichiometry N: 2
[2]
  stoichiometry N: 2

B2: prenylated Ypt1 (natural protein)
chain: not shown
modifications: prenylated with geranylgeranyl pyrophosphate in vitro; loaded with mantGDP
[3]
  binding result: binds

— publication PMC5748984 (The Journal of Cell Biology, 2018)
